Test [1] has as its target TβRII (TGF-β type II receptor) (UniProt P37173). Nature of the test: Flag-FAF1 co-IP, immunoblot. Conditions: reference: wild type; sites S582.
Test [2] deals with VCP (valosin-containing protein) (UniProt P55072). Briefly: Flag-FAF1 co-IP, immunoblot. To be noted: reference: wild type; sites S582. Background: A western blot detects proteins with antibodies after separation by electrophoresis.

In the case of “FAF1 (FAS-associated factor 1) (from UniProt Q9UNN5) S582A”, the “binding against the reference” value in test [1] and in test [2] was “stronger” throughout.
